Data as given in patent US20150203577A1 (Chugai, published 2015).

T1: mouse FcγRII extracellular domain, C-terminal His tag (mouse, UniProt P08101 30-210)
T1 construct: also called mFcγRII; mFcgRII
T1 sequence: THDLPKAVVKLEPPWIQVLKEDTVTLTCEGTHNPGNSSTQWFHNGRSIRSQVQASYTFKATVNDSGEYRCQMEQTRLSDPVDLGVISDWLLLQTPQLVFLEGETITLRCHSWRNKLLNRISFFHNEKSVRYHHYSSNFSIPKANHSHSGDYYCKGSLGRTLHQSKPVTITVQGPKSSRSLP

T2: mouse FcγRIII extracellular domain, C-terminal His tag (mouse, UniProt P08508 31-215)
T2 construct: also called mFcγRIII; mFcgRIII
T2 chain: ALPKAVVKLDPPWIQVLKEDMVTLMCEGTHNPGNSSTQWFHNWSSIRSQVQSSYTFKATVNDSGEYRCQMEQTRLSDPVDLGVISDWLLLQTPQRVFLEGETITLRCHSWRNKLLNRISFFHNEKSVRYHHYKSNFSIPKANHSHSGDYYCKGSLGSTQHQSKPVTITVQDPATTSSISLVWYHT


Legend:
[1] = molecular target: T1, mouse FcγRII extracellular domain, …; test: SPR (Biacore T200), antibody captured on Protein L, mFcγR analyte
[2] = molecular target: T2, mouse FcγRIII extracellular domain, …; test: as above

| Binder | Kd [1] | relative mFcγRII-binding activity (mIgG1 = 1) [1] | Kd [2] | relative mFcγRIII-binding activity (mIgG1 = 1) [2] |
| --- | --- | --- | --- | --- |
| H237-MB761/MRAL-k0 (antibody, mouse IgG1, kappa, copies: 2 + 2) heavy: QVQLQESGPGLVKPSETLSLTCAVSGHSISHDHAWSWVRQPPGEGLEWIGFISYSGITNYNPSLQGRVTISRDNSKNTLYLQMNSLRAEDTAVYYCARSLARTTAMDYWGEGTLVTVSSAKTTPPSVYPLAPGSAAQTNSMVTLGCLVKGYFPEPVTVTWNSGSLSSGVHTFPAVLQSDLYTLSSSVTVPSSTWPSETVTCNVAHPASSTKVDKKIVPRDCGCKPCICEPNEVELVFIFPPKPKDVLTITLTPKVTCVVVDISKDDPEVQFSWFVDDVEVHTAQTQPREEQFNMTFRSVSELPIMHQDWLNGKEFKCRVDSAAFPAPIERTISKTKGRPKAPQVYTIPPPKEQMAKDKVSLTCMITDFFPEDITVEWQWNGQPAENYKNTQPIMDTDGSYFVYSKLNVQKSNWEAGNTFTCSVLHEGLHNHHTEKSLSHSPGK light: not shown | 15.7 nM | 13.4 fold vs H237-mIgG1/MRAL-k0 | 1570 nM | 0.2 fold vs H237-mIgG1/MRAL-k0 |
| H237-MB770/MRAL-k0 (antibody, mouse IgG1, kappa, copies: 2 + 2) heavy: QVQLQESGPGLVKPSETLSLTCAVSGHSISHDHAWSWVRQPPGEGLEWIGFISYSGITNYNPSLQGRVTISRDNSKNTLYLQMNSLRAEDTAVYYCARSLARTTAMDYWGEGTLVTVSSAKTTPPSVYPLAPGSAAQTNSMVTLGCLVKGYFPEPVTVTWNSGSLSSGVHTFPAVLQSDLYTLSSSVTVPSSTWPSETVTCNVAHPASSTKVDKKIVPRDCGCKPCICEPNEVELVFIFPPKPKDVLTITLTPKVTCVVVDISKDDPEVQFSWFVDDVEVHTAQTQPREEQFNSTFRSVSELPIMHQDWLNGKEFKCRVNSAAFPAFIEKTISKTKGRPKAPQVYTIPPPKEQMAKDKVSLTCMITDFFPEDITVEWQWNGQPAENYKNTQPIMDTDGSYFVYSKLNVQKSNWEAGNTFTCSVLHEGLHNHHTEKSLSHSPGK light: not shown | 15.7 nM | 13.3 fold vs H237-mIgG1/MRAL-k0 | 1170 nM | 0.2 fold vs H237-mIgG1/MRAL-k0 |

These reach a lower Kd [1]. Values come first.

| Kd [1] | relative mFcγRII-binding activity (mIgG1 = 1) [1] | Kd [2] | relative mFcγRIII-binding activity (mIgG1 = 1) [2] | Binder |
| --- | --- | --- | --- | --- |
| 15 nM | 14 fold vs H237-mIgG1/MRAL-k0 | 1060 nM | 0.3 fold vs H237-mIgG1/MRAL-k0 | H237-MB766/MRAL-k0 (antibody, mouse IgG1, kappa, copies: 2 + 2) heavy: QVQLQESGPGLVKPSETLSLTCAVSGHSISHDHAWSWVRQPPGEGLEWIGFISYSGITNYNPSLQGRVTISRDNSKNTLYLQMNSLRAEDTAVYYCARSLARTTAMDYWGEGTLVTVSSAKTTPPSVYPLAPGSAAQTNSMVTLGCLVKGYFPEPVTVTWNSGSLSSGVHTFPAVLQSDLYTLSSSVTVPSSTWPSETVTCNVAHPASSTKVDKKIVPRDCGCKPCICEPNEVELVFIFPPKPKDVLTITLTPKVTCVVVDISKDDPEVQFSWFVDDVEVHTAQTQPREEQFNSTFRSVSELPIMHQDWLNGKEFKCRVMSAAFPAPIEKTISKTKGRPKAPQVYTIPPPKEQMAKDKVSLTCMITDFFPEDITVEWQWNGQPAENYKNTQPIMDTDGSYFVYSKLNVQKSNWEAGNTFTCSVLHEGLHNHHTEKSLSHSPGK light: not shown |
| 15.2 nM | 13.8 fold vs H237-mIgG1/MRAL-k0 | 1070 nM | 0.3 fold vs H237-mIgG1/MRAL-k0 | H237-MB771/MRAL-k0 (antibody, mouse IgG1, kappa, copies: 2 + 2) heavy: QVQLQESGPGLVKPSETLSLTCAVSGHSISHDHAWSWVRQPPGEGLEWIGFISYSGITNYNPSLQGRVTISRDNSKNTLYLQMNSLRAEDTAVYYCARSLARTTAMDYWGEGTLVTVSSAKTTPPSVYPLAPGSAAQTNSMVTLGCLVKGYFPEPVTVTWNSGSLSSGVHTFPAVLQSDLYTLSSSVTVPSSTWPSETVTCNVAHPASSTKVDKKIVPRDCGCKPCICEPNEVELVFIFPPKPKDVLTITLTPKVTCVVVDISKDDPEVQFSWFVDDVEVHTAQTQPREEQFNSTFRSVSELPIMHQDWLNGKEFKCRVNSAAFPAYIEKTISKTKGRPKAPQVYTIPPPKEQMAKDKVSLTCMITDFFPEDITVEWQWNGQPAENYKNTQPIMDTDGSYFVYSKLNVQKSNWEAGNTFTCSVLHEGLHNHHTEKSLSHSPGK light: not shown |
